# Article PMC8262916
# Assays:
# Nsp12T;Nsp7;Nsp8 = Nsp12T;Nsp7;Nsp8 (SARS-CoV-2;SARS-CoV-2;SARS-CoV-2, UniProt P0DTD1;P0DTD1;P0DTD1 4393-5324;3860-3942;3943-4140, ||); test: EMSA
# Nsp12A;Nsp7;Nsp8 = Nsp12A;Nsp7;Nsp8 (SARS-CoV-2;SARS-CoV-2;SARS-CoV-2, UniProt P0DTD1;P0DTD1;P0DTD1 4393-5324;3860-3942;3943-4140, ||); test: EMSA; 2 mM Mg2+; 100 nM RNA
binder,measurement,setting,value
UUUUCAUGCUACGCGUAGUUUUCUACGCG (structured_RNA) [4N RNA hairpin scaffold],binding result,Nsp12T;Nsp7;Nsp8,binds
same,binding result,Nsp12A;Nsp7;Nsp8,binds
